Measured values taken from patent publication US5747447A, “Stable polypeptide composition” (COR Therapeutics, priority 1995, dated 1998).

Columns and labels:
vitronectin receptor = vitronectin receptor (Homo sapiens, UniProt P05106+P06756); assay: plate assay, inhibition of vitronectin binding to vitronectin receptor
From the text: The PAI assay systems further include characterization of the PAI specificity by binding inhibition assays identical to that above but substituting other adhesive proteins for Fg and other receptors for GP IIb-IIIa. In particular, inhibition of the binding of vitronectin to the vitronectin receptor; fibronectin to the fibronectin receptor; fibronectin to GP IIb-IIIa and fibrinogen and/or vWF to GP IIb-IIIa can be assessed. The adhesive protein and receptors for these assays are available in the art.

M21 melanoma cells = assay: M21 melanoma cell adhesion to vitronectin-coated plates; assay type: cell-based
Procedure: M21 melanoma cells were labelled with ^35 S-methionine, and then added to vitronectin-coated plates in the presence of the indicated concentrations of purified snake venom peptides. Cell attachment was measured by solubilizing the cells remaining after an incubation and wash, as previously describe.

[1] = molecular target: ADP-induced human platelet aggregation (Homo sapiens, UniProt P05106+P08514); assay: standard aggregation inhibition assay (ADP-induced human platelet aggregation); assay type: cell-based
From the text: 2. Standard assays directly applied to platelet aggregation, such as those described by Gann, Z.-R., et al., J Biol Chem (1988) 263:19827-19832; Huang, T. F., et al., J Biol Chem (1987) 262:16157-16163; Biochemistry (1989) 28:661-666, cited above and incorporated herein by reference;

vitronectin receptor, sequence (P06756 31-889 limits assumed): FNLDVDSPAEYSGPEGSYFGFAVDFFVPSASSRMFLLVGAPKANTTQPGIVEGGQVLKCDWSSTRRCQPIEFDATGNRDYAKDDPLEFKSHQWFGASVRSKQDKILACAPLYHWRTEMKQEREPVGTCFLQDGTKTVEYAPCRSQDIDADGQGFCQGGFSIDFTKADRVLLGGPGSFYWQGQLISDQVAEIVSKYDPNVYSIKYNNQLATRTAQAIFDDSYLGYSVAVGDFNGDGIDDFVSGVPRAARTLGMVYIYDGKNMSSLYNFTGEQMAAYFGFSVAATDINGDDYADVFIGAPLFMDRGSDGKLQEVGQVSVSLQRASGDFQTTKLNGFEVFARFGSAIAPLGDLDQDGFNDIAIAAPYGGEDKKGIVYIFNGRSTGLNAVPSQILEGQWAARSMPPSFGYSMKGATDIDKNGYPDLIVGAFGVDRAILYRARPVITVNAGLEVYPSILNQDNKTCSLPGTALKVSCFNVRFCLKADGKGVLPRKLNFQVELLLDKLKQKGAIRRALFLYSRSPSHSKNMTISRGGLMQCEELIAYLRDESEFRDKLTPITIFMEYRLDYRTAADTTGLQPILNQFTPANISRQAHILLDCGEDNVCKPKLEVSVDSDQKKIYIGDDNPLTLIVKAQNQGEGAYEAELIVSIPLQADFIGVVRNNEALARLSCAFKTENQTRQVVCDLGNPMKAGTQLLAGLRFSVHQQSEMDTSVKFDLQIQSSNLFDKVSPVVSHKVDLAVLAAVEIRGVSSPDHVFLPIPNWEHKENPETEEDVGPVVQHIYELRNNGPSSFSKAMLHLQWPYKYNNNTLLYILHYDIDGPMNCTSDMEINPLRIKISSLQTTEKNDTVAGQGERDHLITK
vitronectin receptor, sequence (P06756 891-1048 limits assumed): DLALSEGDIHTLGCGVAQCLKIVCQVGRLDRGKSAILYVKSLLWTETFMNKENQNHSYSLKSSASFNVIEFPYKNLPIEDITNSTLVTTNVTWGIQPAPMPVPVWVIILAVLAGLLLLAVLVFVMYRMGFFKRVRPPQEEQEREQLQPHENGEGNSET
vitronectin receptor, sequence (P05106 27-788): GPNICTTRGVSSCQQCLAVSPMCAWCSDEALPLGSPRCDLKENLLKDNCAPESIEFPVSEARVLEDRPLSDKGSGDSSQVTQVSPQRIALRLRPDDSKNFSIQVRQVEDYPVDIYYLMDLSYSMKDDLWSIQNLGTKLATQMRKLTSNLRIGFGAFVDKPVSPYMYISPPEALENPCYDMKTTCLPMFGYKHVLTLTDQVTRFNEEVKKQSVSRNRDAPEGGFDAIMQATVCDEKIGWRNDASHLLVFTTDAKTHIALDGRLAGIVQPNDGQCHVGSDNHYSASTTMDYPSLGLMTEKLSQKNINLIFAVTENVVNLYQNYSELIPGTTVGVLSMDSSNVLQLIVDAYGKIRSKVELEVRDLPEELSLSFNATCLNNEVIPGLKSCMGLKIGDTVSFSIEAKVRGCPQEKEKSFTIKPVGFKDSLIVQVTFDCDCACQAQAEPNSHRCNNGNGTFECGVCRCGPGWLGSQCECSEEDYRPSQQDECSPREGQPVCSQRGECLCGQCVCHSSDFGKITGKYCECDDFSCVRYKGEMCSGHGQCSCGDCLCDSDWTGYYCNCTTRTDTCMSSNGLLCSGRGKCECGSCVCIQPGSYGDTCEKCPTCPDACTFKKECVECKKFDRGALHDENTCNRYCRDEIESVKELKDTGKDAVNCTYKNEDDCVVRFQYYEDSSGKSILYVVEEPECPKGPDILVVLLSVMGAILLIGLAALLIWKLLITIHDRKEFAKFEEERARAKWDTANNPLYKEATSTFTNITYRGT

Row | Molecule | inhibition of vitronectin binding to the vitronectin receptor (in words) (vitronectin receptor) | M21 cell attachment to vitronectin (in words) (M21 melanoma cells) | platelet aggregation inhibition activity (in words) [1]
1 | cotiarin (protein) peptide: EAGEECDCGAPENPCCDAATCKLRPGAQCAEGLCCDQCRFKGAGKICRRARGDNPDDRCTGQSADCPRNRFH | potent inhibitor | very potent in inhibiting cell attachment to vitronectin | –
2 | barbourin (protein) peptide: EAGEECDCGSPENPCCDAATCKLRPGAQCADGLCCDQCRFMKKGTVCRVAKGDWNDDTCTGQSADCPRNGLYG | – | Neither barbourin nor Peptide 1 (truncated barbourin) had a significant effect | potent inhibitors of platelet aggregation
